Measurements: paper PMC3466378 (Journal of immunology (Baltimore, Md. : 1950), 2012)
pIC50: −log10 of the molar value. Ends that are not written are not given here.

Legend:
[1] = target: Soluble recombinant HLA-DR1 (HLA DRB1*0101) (human); assay: fluorescence polarisation
[2] = target: Soluble recombinant HLA-DR1 (HLA DRB1*0101) (human); assay: ELISA
[3] = target: HLA-DR1 (Homo sapiens, UniProt P01903+P01911, A100R/D57E/F55L/F60I/F76Y/I96L/L162R/M171V/P40L/Q125E/R42F/V115G/Y59C); assay: biochemical; assay type: binding

Row | Compound | pIC50 [1] | t1/2DM [2] [h] | t1/2in [2] [h] | pIC50 [3]
1 | L1R (191–205) (peptide) | 5.13 |  |  | 
2 | D6R (156–170) (peptide) | 8.40 | 219 | 997 | 
3 | I1L (8–22) (peptide) | 7.82 |  | 155 | 
4 | D5R (315–329) (peptide) |  |  | 276 | 
5 | CC[C@H](C)[C@H](NC(=O)[C@H](CO)NC(=O)[C@H](CC(N)=O)NC(=O)[C@H](Cc1ccccc1)NC(=O)[C@@H](NC(=O)[C@@H](N)CC(C)C)C(C)C)C(=O)N[C@@H](CO)C(=O)N[C@@H](C)C(=O)N[C@@H](CCCNC(=N)N)C(=O)N[C@@H](C)C(=O)N[C@@H](CC(C)C)C(=O)N[C@@H](CCCCN)C(=O)N[C@@H](C)C(=O)N[C@@H](Cc1ccc(O)cc1)C(=O)N[C@@H](Cc1ccccc1)C(=O)O [I1L (8–22)] |  |  |  | 7.82
6 | CC[C@H](C)[C@H](NC(=O)[C@H](CCCNC(=N)N)NC(=O)[C@H](CC(=O)O)NC(=O)[C@@H](NC(=O)[C@H](CCCCN)NC(=O)[C@@H](NC(=O)[C@H](CO)NC(=O)[C@H](CCC(=O)O)NC(=O)[C@@H](NC(=O)[C@H](Cc1ccc(O)cc1)NC(=O)[C@H](CCSC)NC(=O)[C@H](Cc1ccccc1)NC(=O)[C@H](CO)NC(=O)[C@H](Cc1ccccc1)NC(=O)[C@@H](N)CCCCN)[C@@H](C)CC)[C@@H](C)CC)C(C)C)C(=O)O [A20R (214–228)] |  |  |  | 6.72
7 | F1L(202–214) (peptide) |  | 117 | 413 | 
8 | I4L (71–85) (peptide) |  |  | 278 | 
9 | CC[C@H](C)[C@H](NC(=O)[C@H](C)NC(=O)[C@H](CC(C)C)NC(=O)[C@H](CO)NC(=O)[C@H](CC(N)=O)NC(=O)[C@H](CC(C)C)NC(=O)[C@H](Cc1ccccc1)NC(=O)[C@H](CCCNC(=N)N)NC(=O)[C@H](CCSC)NC(=O)[C@H](CC(=O)O)NC(=O)[C@@H](N)Cc1ccccc1)C(=O)N[C@@H](Cc1c[nH]cn1)C(=O)N[C@@H](CCC(=O)O)C(=O)O [I7L (193–205)] |  |  |  | 6.82
10 | A28Ls (15–29) (peptide) | 6.67 |  | 213 | 
11 | CC[C@H](C)[C@H](NC(=O)[C@H](Cc1ccccc1)NC(=O)[C@H](CC(C)C)NC(=O)[C@H](CC(C)C)NC(=O)[C@H](CO)NC(=O)[C@@H](NC(=O)[C@H](C)N)C(C)C)C(=O)N[C@@H](CCC(N)=O)C(=O)NCC(=O)N[C@@H](Cc1ccc(O)cc1)C(=O)N[C@@H](CO)C(=O)N[C@H](C(=O)N[C@@H](Cc1ccc(O)cc1)C(=O)N[C@@H](CCC(=O)O)C(=O)N[C@@H](CC(N)=O)C(=O)O)[C@@H](C)CC [A28Ls (15–29)] |  |  |  | 6.67
12 | HPDYAILAARIAVSN [I4L (71–85)] |  |  |  | 7.21
13 | GRYLVLKAVKVSD [F17R(19–31)] |  |  |  | 7.43
14 | CC[C@H](C)[C@H](NC(=O)CNC(=O)[C@H](CO)NC(=O)[C@H](CCC(N)=O)NC(=O)[C@H](CC(N)=O)NC(=O)[C@@H](NC(=O)[C@H](Cc1ccccc1)NC(=O)[C@@H]1CCCN1C(=O)[C@@H](N)CCC(=O)O)C(C)C)C(=O)N[C@@H](CCC(=O)O)C(=O)N[C@H](C(=O)N[C@@H](CC(C)C)C(=O)N[C@@H](CC(C)C)C(=O)O)[C@@H](C)CC [D11L (386–398)] |  |  |  | 6.97
15 | A48Rs (41–55) (peptide) | 7.36 | 115 | 136 | 
16 | TTQSMNIMESIPANT [A48Rs (41–55)] |  |  |  | 7.36
17 | CC[C@H](C)[C@H](NC(=O)[C@@H]1CCCN1C(=O)[C@H](CO)NC(=O)CNC(=O)[C@H](CC(=O)O)NC(=O)[C@H](CC(C)C)NC(=O)[C@@H](NC(=O)[C@H](CCCCN)NC(=O)[C@H](Cc1ccccc1)NC(=O)CNC(=O)[C@H](CC(C)C)NC(=O)[C@@H](N)CO)C(C)C)C(=O)N[C@@H](CO)C(=O)N[C@@H](CC(C)C)C(=O)N[C@@H](CCCNC(=N)N)C(=O)O [I8R (243–257)] |  |  |  | 7.77
